These are literature values, as cited in PMC10348426.

Where two headings read alike, the source gives them in different places.

In data set [1] the target is ER ECD (Arabidopsis thaliana) (UniProt Q42371).
Data set [2] addresses FER ECD (Arabidopsis thaliana) (UniProt Q9SCZ4). Kind of data set: MST.
Data set [3] has as its target ER ECD (Arabidopsis thaliana) (UniProt Q42371). This is another data set of the same source.

UniProt Q42371, sequence (Q42371 25-580): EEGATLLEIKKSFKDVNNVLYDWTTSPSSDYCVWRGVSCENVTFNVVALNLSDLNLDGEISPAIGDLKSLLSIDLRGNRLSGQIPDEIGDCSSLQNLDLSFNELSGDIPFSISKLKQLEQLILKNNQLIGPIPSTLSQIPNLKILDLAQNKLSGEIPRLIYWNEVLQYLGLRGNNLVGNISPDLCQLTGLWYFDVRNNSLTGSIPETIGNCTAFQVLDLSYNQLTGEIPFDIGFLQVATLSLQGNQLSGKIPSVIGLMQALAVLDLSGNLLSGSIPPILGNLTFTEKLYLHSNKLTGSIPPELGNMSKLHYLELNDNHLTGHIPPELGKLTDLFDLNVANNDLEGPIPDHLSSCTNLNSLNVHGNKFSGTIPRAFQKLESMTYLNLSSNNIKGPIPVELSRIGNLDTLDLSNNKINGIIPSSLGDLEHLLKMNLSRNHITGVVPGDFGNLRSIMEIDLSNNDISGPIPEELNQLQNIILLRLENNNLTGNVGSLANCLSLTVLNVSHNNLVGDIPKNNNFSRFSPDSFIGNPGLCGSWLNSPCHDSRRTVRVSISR
UniProt Q9SCZ4, sequence (Q9SCZ4 28-447): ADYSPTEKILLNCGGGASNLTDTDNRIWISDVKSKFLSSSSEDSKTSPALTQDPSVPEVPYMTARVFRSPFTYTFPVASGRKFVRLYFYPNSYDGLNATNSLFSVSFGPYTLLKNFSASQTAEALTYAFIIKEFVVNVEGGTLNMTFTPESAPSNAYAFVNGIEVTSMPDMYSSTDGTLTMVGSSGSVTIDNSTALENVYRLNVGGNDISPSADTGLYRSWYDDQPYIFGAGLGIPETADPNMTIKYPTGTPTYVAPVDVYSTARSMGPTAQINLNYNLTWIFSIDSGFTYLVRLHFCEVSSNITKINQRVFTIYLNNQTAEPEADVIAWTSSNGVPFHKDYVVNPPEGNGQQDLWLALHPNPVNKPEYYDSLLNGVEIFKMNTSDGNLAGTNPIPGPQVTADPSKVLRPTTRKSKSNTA

By Kd is commonly meant the free concentration of one partner at which half of the binding sites on the other are occupied at equilibrium, for simple one-to-one binding. Turning to EPF2 (from UniProt Q8LC53), in data set [1], the Kd was 59 nM.
RALF33 (from UniProt Q8L9P8): the Kd in data set [2] was 160 nM.
With STOMAGEN (from UniProt Q9SV72), the Kd in data set [3] was 44 nM.
